Data set [1] has as its system T1, CCCC(=O)Oc1ccc([N+](=O)[O-])cc1.
T1 construct: dimer ~70 kDa; residues Cys49 and Cys207
Nature of the data set: p-nitrophenol release, Lineweaver-Burk plot. Type of data set: biochemical, uncultured bacterium. As to conditions: 50 mM Tris-HCl pH 8.0, 100 mM NaCl, 30 °C, 0.1-1.25 mM substrate. The text has this:
p-nitrophenol release, Lineweaver-Burk plot on PMGL3

The target of data set [2] is PMGL3 mutant C49V (not stated (permafrost metagenomic library)). Nature of the data set: SEC; Superdex 75 10/300 GL, 0.4 mL/min, 100 mM Tris-HCl pH 8.0, 150 mM NaCl; fresh sample before heating; column calibrated with 29-669 kDa standards. Background: SEC sorts molecules by how far they enter the pores of the column.
The target is the same in data set [3]. In words: SEC; Superdex 75 10/300 GL, 0.4 mL/min, 100 mM Tris-HCl pH 8.0, 150 mM NaCl; sample after incubation for 1 h at 40 °C; column calibrated with 29-669 kDa standards.
Data set [4] deals with PMGL3 mutant C207F (not stated (permafrost metagenomic library)). Nature of the data set: SEC; Superdex 75 10/300 GL, 0.4 mL/min, 100 mM Tris-HCl pH 8.0, 150 mM NaCl; fresh sample before heating; column calibrated with 29-669 kDa standards.
Data set [5] has the same target. In words: SEC; Superdex 75 10/300 GL, 0.4 mL/min, 100 mM Tris-HCl pH 8.0, 150 mM NaCl; sample after incubation for 1 h at 40 °C; column calibrated with 29-669 kDa standards.
Data set [6] addresses cold-active esterase PMGL3 (wild type) (not stated (permafrost metagenomic library)). In words: SEC; Superdex 75 10/300 GL, 0.4 mL/min, 100 mM Tris-HCl pH 8.0, 150 mM NaCl; fresh sample before heating; column calibrated with 29-669 kDa standards.
The target is the same in data set [7]. In words: SEC; Superdex 75 10/300 GL, 0.4 mL/min, 100 mM Tris-HCl pH 8.0, 150 mM NaCl; sample after incubation for 1 h at 40 °C; column calibrated with 29-669 kDa standards.

What is called Km is the substrate concentration at which the rate is half of its maximum. For orientation: Vmax means the rate approached at saturating substrate. As usually defined, the kcat is the number of substrate molecules converted per active site and unit of time at saturation. A word on the kcat/Km: it is the turnover number divided by the Michaelis constant. With PMGL3 (unidentified), in data set [1], the Km is 980 µM, the maximum rate (Vmax) came out at 165000 µM/min/mg, the kcat was 91.5 s⁻¹ and the kcat/Km was found to be 93400 M⁻¹ s⁻¹.
As for PMGL3 (unidentified; C49V), in data set [1], the Michaelis constant (Km) is 1290 µM, the Vmax was 94700 µM/min/mg, the kcat is 52.6 s⁻¹ and the kcat/Km is 40800 M⁻¹ s⁻¹.
The matching figures for PMGL3 (unidentified; C207F): 170 µM, 94600 µM/min/mg, 52.5 s⁻¹ and 309000 M⁻¹ s⁻¹.
A word on the stoichiometry N: it is the number of molecules, sites or subunits per partner or assembly. For the substance PMGL3 mutant C49V (enzyme), the stoichiometry N in data set [2] stood at 2; in data set [3], 4.
PMGL3 mutant C207F (enzyme): the stoichiometry N was determined as 2 in data set [4] and 4 in data set [5].
On to “cold-active esterase PMGL3 (wild type) (enzyme)”, for which the stoichiometry N in data set [6] came to 2; in data set [7], 4.

The values are drawn from paper PMC6995580, “Thermal Inactivation of a Cold-Active Esterase PMGL3 Isolated from the Permafrost Metagenomic Library” (Biomolecules, 2019).
